Among the data in article PMC8515915 (Genome Medicine, 2021) are Kd values, retold here.

This experiment addresses T1, SARS-CoV-2 RBD wildtype, soluble fragment 319-591 with C-terminal 8 × His tag (SARS-CoV-2, UniProt P0DTC2).
T1 construct: source: ExpiCHO-S, transient, purified (His Trap Excel)
Description: BLI. As to conditions: both partners purified.

B1: CB6 (antibody, V domains shown)
VH: EVQLVESGGGLVQPGGSLRLSCAASGFTVSSNYMSWVRQAPGKGLEWVSVIYSGGSTFYADSVKGRFTISRDNSMNTLFLQMNSLRAEDTAVYYCARVLPMYGDYLDYWGQGTLVTVSS
VL: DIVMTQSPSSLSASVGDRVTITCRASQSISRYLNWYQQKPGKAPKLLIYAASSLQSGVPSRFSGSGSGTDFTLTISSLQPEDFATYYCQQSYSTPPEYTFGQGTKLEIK
notes: source: ExpiCHO, heavy and light chain plasmids cotransfected, purified (Protein A)
B1: the Kd was 10.7 nM.
